Measured values as given in the supplement of paper PMC10126150.
± gives the standard deviation of the averaged measurements.

Tested on: ATP
Assay: switch fluorescence ratio, 500 uM ATP over buffer (Cy3 cluster intensity, sum of 5 cycles each) (fold (ratio)); higher = stronger signal-on switching upon ATP binding; sequences stand for … in TCGTCGGCAGCGTCAGATGTGTATAAGAGACAGTTTTTTTTTTTTTTTTTTTTTTTTT…TC
Details: aptamer strand: ATP DNA aptamer (quencher-CACCTGGGGGAGTATTGCGGAGGAAGG + anchor), 100 nM annealed; ATP concentration: 500 uM
Summary of the method: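 The quencher-labelled ATP aptamer, at 100 nM, was annealed to Cy3-labelled switching-strand clusters on a modified Illumina MiSeq flow-cell. The clusters were imaged in selection buffer, then after 15 min with 500 uM ATP at 22 °C, and this buffer/ATP cycle ran five times with NaOH stripping and re-annealing between runs. Per-cluster fluorescence ratios, summed target-cycle over summed buffer-cycle Cy3 intensity, were averaged per switch-domain sequence. Clusters outside 100-1000 RFU were excluded.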
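Further: ATP exposure 15 min at 22 °C before imaging.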

Sequence | switch fluorescence ratio
TGGTGCTCAT | 0.994 ± 0.024
TGGTGGAATT | 1.02 ± 0.034
TGGTGGACGT | 0.997 ± 0.039
TGGTGGCCGG | 1.02 ± 0.019
TGGTGGGATC | 1.03 ± 0.025
TGGTGGGGCA | 0.977 ± 0.064
TGGTGGGGGT | 0.999 ± 0.028
TGGTGGGTAT | 0.999 ± 0.024
TGGTGGGTTT | 1 ± 0.029
TGGTGGTATG | 1.01 ± 0.071
TGGTGTCACG | 0.983 ± 0.017
TGGTGTCGT | 1.01 ± 0.011
TGGTGTTGTC | 1.03 ± 0.033
TGGTTAAAAT | 1 ± 0.025
TGGTTAAATT | 0.997 ± 0.033
TGGTTAACTG | 1.13 ± 0.16
TGGTTACGCT | 1.028 ± 0.0084
TGGTTACTCG | 0.984 ± 0.034
TGGTTAGGG | 0.988 ± 0.019
TGGTTATAAT | 0.992 ± 0.024
TGGTTATTAC | 1.037 ± 0.0094
TGGTTATTAT | 0.991 ± 0.015
TGGTTCGAT | 0.978 ± 0.015
TGGTTCGGGG | 0.96 ± 0.015
TGGTTCGGTG | 0.977 ± 0.016

Sequence | switch fluorescence ratio
TGGTTGAAAA | 0.875 ± 0.033
TGGTTGAACC | 1.03 ± 0.024
TGGTTGAGAC | 0.988 ± 0.016
TGGTTGATGA | 0.98 ± 0.064
TGGTTGCGTG | 1 ± 0.015
TGGTTGGGAG | 1.01 ± 0.035
TGGTTGGGCT | 1.01 ± 0.026
TGGTTGGGGA | 0.994 ± 0.036
TGGTTGGTC | 0.965 ± 0.039
TGGTTGGTGC | 1.16 ± 0.17
TGGTTGTTAT | 1.008 ± 0.0058
TGGTTGTTTA | 0.993 ± 0.0045
TGGTTTAATA | 0.9853 ± 0.0079
TGGTTTACCA | 0.9936 ± 0.0041
TGGTTTATTC | 0.986 ± 0.051
TGGTTTCAGG | 1.01 ± 0.025
TGGTTTGCCG | 1.01 ± 0.049
TGGTTTGGTA | 0.961 ± 0.011
TGGTTTTGCC | 1.005 ± 0.0082
TGGTTTTGGG | 0.992 ± 0.021
TGGTTTTTAC | 1.01 ± 0.038
TGGTTTTTGG | 0.989 ± 0.018
TGGTTTTTTC | 1.01 ± 0.033
TGGTTTTTTT | 0.992 ± 0.018
TGTAAAAACG | 1.01 ± 0.056

Sequence | switch fluorescence ratio
TGTAAAAAGC | 1.018 ± 0.0059
TGTAAAAGGA | 1.01 ± 0.021
TGTAAACCGG | 1.07 ± 0.042
TGTAAATACA | 1.15 ± 0.18
TGTAAGCCGG | 1.05 ± 0.07
TGTAAGGATT | 1.009 ± 0.0083
TGTAAGGGCG | 1.02 ± 0.016
TGTAATGGGT | 1 ± 0.029
TGTACGACGG | 1.02 ± 0.023
TGTACTATGG | 1.01 ± 0.04
TGTAGAGGGC | 1.04 ± 0.026
TGTAGAGGGT | 0.976 ± 0.029
TGTAGGAAGT | 0.992 ± 0.017
TGTAGGACGG | 1.09 ± 0.094
TGTAGGGGTG | 0.987 ± 0.016
TGTAGGTGGT | 0.978 ± 0.016
TGTAGTAACG | 0.982 ± 0.012
TGTAGTAGCA | 1.04 ± 0.034
TGTATATTGG | 0.995 ± 0.015
TGTATCTCTG | 1.02 ± 0.02
TGTATGGCGC | 1.01 ± 0.058
TGTATGGGGT | 0.973 ± 0.018
TGTATGTTTT | 0.962 ± 0.046
TGTATTATGT | 1.002 ± 0.004
TGTATTCGGG | 0.978 ± 0.01

Sequence | switch fluorescence ratio
TGTATTTAC | 1.11 ± 0.048
TGTCAAAAAT | 0.982 ± 0.043
TGTCAGACGT | 1 ± 0.011
TGTCAGGGGT | 1.03 ± 0.043
TGTCCCACAA | 0.999 ± 0.035
TGTCCGCCTG | 1.07 ± 0.019
TGTCGGAAAG | 0.985 ± 0.026
TGTCGGCTGC | 1.09 ± 0.015
TGTCGGGTTA | 1.01 ± 0.027
TGTCGGTGGG | 0.992 ± 0.016
TGTCGGTGTC | 1.01 ± 0.028
TGTCGTCTTC | 0.99 ± 0.016
TGTCGTGTAG | 1.01 ± 0.0094
TGTCTCAGAT | 0.97948 ± 0.00033
TGTCTTTTTA | 0.995 ± 0.028
TGTGAAAGGC | 1.04 ± 0.03
TGTGAAGTTG | 1.008 ± 0.0027
TGTGAATGGG | 1.02 ± 0.017
TGTGACAATA | 1.04 ± 0.01
TGTGACAGGA | 1.02 ± 0.057
TGTGAGTTTT | 0.974 ± 0.014
TGTGATGCCG | 0.976 ± 0.015
TGTGATTTTG | 0.998 ± 0.028
TGTGCAGAAA | 0.9899 ± 0.0059
TGTGCGACGG | 0.989 ± 0.021
